Series [1] has as its target CcrM R350A (Caulobacter crescentus, UniProt P0CAW2 1-358, R350A). The series is described as follows: fluorescence anisotropy; 30 uM SAH; Hill h = 1.3; apparent Kd, above tested range 0-1000 nM; Anisotropy: 10 nM FAM-DNA, 0-1000 nM protein, 30 uM SAH, 100 mM HEPES, 1 mM EDTA, 20 mM NaCl, pH 8, room temperature, 20 min; Trp fluorescence: same buffer plus 2 mM DTT, 500 nM protein, 60 uM sinefungin, 5 uM DNA. To be noted: protein: recombinant; chain copies: 2; label: 5' 6-FAM on strand 1; blunt.

The target of series [2] is T1, CcrM WT (Caulobacter crescentus, UniProt P0CAW2 1-358). Nature of the series: fluorescence anisotropy; 30 uM SAH; Hill h = 2.5; apparent Kd; Anisotropy: 10 nM FAM-DNA, 0-1000 nM protein, 30 uM SAH, 100 mM HEPES, 1 mM EDTA, 20 mM NaCl, pH 8, room temperature, 20 min; Trp fluorescence: same buffer plus 2 mM DTT, 500 nM protein, 60 uM sinefungin, 5 uM DNA. To be noted: protein: recombinant; chain copies: 2; label: 5' 6-FAM on strand 1; blunt.

Series [3] concerns the target T1, CcrM WT. The series is described as follows: fluorescence anisotropy; 30 uM SAH; Hill h = 2.1; apparent Kd; Anisotropy: 10 nM FAM-DNA, 0-1000 nM protein, 30 uM SAH, 100 mM HEPES, 1 mM EDTA, 20 mM NaCl, pH 8, room temperature, 20 min; Trp fluorescence: same buffer plus 2 mM DTT, 500 nM protein, 60 uM sinefungin, 5 uM DNA. To be noted: protein: recombinant; chain copies: 2; label: 5' 6-FAM on strand 1; blunt. A general note: Polarisation of emitted light reports the rotation of a fluorescent probe.

Series [4] has as its target T1, CcrM WT. The series is described as follows: equilibrium Trp fluorescence; 60 uM sinefungin; smaller change than dsDNA; Anisotropy: 10 nM FAM-DNA, 0-1000 nM protein, 30 uM SAH, 100 mM HEPES, 1 mM EDTA, 20 mM NaCl, pH 8, room temperature, 20 min; Trp fluorescence: same buffer plus 2 mM DTT, 500 nM protein, 60 uM sinefungin, 5 uM DNA. To be noted: protein: recombinant; chain copies: 2; single strand.

T1 sequence (P0CAW2 whole entry): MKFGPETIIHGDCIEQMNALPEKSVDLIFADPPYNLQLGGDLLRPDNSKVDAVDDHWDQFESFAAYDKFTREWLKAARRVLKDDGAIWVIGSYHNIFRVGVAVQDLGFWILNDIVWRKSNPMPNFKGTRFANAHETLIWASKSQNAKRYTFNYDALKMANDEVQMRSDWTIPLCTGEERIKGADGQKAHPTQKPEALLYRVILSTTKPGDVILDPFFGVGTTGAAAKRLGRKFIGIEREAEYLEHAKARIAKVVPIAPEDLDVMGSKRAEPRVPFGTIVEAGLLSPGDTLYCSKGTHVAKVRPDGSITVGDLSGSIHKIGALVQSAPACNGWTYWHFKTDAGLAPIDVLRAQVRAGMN
Sequence of CcrM R350A (P0CAW2 whole entry R350A): as the sequence (P0CAW2 whole entry) above, with R350A counted along it

B1: C1-FAM (dsDNA)
DNA 1: TCACTGTACTCTGACTCGCCTGACATGAC
DNA 2: GTCATGTCAGGCGAGTCAGAGTACAGTGA
modifications: N6-methyl-A at position 14 (5' to 3') of strand 2 (hemimethylated)
For the molecule B1, the Kd in series [1] was 2110 ± 193 nM; in series [2], 150 ± 5.4 nM.

B2: NC-FAM (dsDNA)
DNA 1: TCACTGTACTCTGACTGGCCTGACATGAC
DNA 2: GTCATGTCAGGCCAGTCAGAGTACAGTGA
modifications: N6-methyl-A at position 14 (5' to 3') of strand 2
With B2, the Kd in series [3] amounted to 135 ± 7.6 nM.

For the molecule TCACTGTACTCTGACTCGCCTGACATGAC (ssDNA) [cognate ssDNA], the binding result in series [4] is “binds”.
